From patent US20210293825 come the findings set out here.

The target of the series is HSP90β/CDC37 heterocomplex of purified recombinant HSP90β and CDC37 (in vitro kinase assay), P08238.
HSP90β/CDC37 heterocomplex of purified recombinant HSP90β and CDC37 (in vitro kinase assay), P08238, sequence (P08238 whole entry, chain 1 of 2): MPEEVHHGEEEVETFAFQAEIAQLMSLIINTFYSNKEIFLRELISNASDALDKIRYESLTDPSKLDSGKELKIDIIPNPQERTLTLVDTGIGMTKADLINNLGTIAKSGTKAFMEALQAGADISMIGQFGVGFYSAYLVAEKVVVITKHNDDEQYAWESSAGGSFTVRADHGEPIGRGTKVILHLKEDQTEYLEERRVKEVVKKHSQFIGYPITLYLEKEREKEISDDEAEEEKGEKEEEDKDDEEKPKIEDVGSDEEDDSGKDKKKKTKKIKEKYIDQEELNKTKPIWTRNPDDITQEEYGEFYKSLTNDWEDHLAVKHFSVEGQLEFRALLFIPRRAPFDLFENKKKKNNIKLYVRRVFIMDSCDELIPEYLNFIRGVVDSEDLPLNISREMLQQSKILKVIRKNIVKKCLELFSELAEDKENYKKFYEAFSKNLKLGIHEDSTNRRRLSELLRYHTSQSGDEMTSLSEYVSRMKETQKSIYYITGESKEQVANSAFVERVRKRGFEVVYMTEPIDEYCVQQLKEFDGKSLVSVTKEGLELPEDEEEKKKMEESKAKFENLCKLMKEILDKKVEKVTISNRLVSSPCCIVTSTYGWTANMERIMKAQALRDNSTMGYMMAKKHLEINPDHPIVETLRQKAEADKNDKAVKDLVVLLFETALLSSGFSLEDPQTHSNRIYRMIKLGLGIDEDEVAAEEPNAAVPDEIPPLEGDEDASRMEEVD
HSP90β/CDC37 heterocomplex of purified recombinant HSP90β and CDC37 (in vitro kinase assay), P08238, sequence (chain, as listed by the source, chain 2 of 2): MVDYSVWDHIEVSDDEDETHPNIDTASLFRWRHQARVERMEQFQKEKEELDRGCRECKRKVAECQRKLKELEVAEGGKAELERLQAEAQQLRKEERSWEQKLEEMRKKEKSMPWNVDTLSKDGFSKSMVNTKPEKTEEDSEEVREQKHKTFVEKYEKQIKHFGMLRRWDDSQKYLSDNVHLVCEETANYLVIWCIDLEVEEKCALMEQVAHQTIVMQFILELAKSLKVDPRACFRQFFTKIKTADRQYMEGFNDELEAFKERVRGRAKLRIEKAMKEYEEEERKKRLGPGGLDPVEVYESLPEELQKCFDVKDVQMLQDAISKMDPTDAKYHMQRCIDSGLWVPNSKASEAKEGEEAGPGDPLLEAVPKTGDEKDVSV

B1: purified recombinant RAF1 (Raf-1, EMD Millipore #17-360) (protein)
chain: SQPKTPVPAQRERAPVSGTQEKNKIRPRGQRDSSYYWEIEASEVMLSTRIGSGSFGTVYKGKWHGDVAVKILKVVDPTPEQFQAFRNEVAVLRKTRHVNILLFMGYMTKDNLAIVTQWCEGSSLYKHLHVQETKFQMFQLIDIARQTAQGMDYLHAKNIIHRDMKSNNIFLHEGLTVKIGDFGLATVKSRWSGSQQVEQPTGSVLWMAPEVIRMQDNNPFSFQSDVYSYGIVLYELMTGELPYSHINNRDQIIFMVGRGYASPDLSKLYKNCPKAMKRLVADCVKKVKEERPLFPQILSSIELLQHSLPKINRSASEPSLHRAAHTEDINACTLTTSPRLPVF
As for B1, the “RAF1 activity (autophosphorylation of RAF1 in an in vitro kinase assay, Western blot)” value is “In the absence of CDC37/HSP90β heterocomplex, RAF1 activity was much lower”.

B2: purified recombinant SGK3 (Thermo Scientific #PV3859) (protein)
chain: MQRDHTMDYKESCPSVSIPSSDEHREKKKRFTVYKVLVSVGRSEWFVFRRYAEFDKLYNTLKKQFPAMALKIPAKRIFGDNFDPDFIKQRRAGLNEFIQNLVRYPELYNHPDVRAFLQMDSPKHQSDPSEDEDERSSQKLHSTSQNINLGPSGNPHAKPTDFDFLKVIGKGSFGKVLLAKRKLDGKFYAVKVLQKKIVLNRKEQKHIMAERNVLLKNVKHPFLVGLHYSFQTTEKLYFVLDFVNGGELFFHLQRERSFPEHRARFYAAEIASALGYLHSIKIVYRDLKPENILLDSVGHVVLTDFGLCKEGIAISDTTTTFCGTPEYLAPEVIRKQPYDNTVDWWCLGAVLYEMLYGLPPFYCRDVAEMYDNILHKPLSLRPGVSLTAWSILEELLEKDRQNRLGAKEDFLEIQNHPFFESLSWADLVQKKIPPPFNPNVAGPDDIRNFDTAFTEETVPYSVCVSSDYSIVNASVLEADDAFVGFSYAPPSEDLFL
For B2, the “phosphorylation of HSP90β (in vitro kinase assay, Western blot)” value was “SGK3 increased phosphorylation of HSP90β, and that phosphorylation was further increased in the presence of KBU2046”.
